Target: RBD (UniProt P0DTC2 319-541)
Assay: SPR

B1: Nb21 (VHH)
VHH: QVQLVESGGGLVQAGGSLRLSCAVSGLGAHRVGWFRRAPGKEREFVAAIGANGGNTNYLDSVKGRFTISRDNAKNTIYLQMNSLKPQDTAVYYCAARDIETAEYTYWGQGTQVTVSS
Kd: < 1 pM

Reference: patent US20250002563A1 (published 2025)
